In US20210340225A1:

Tests used:
[1] = biological target: prefusion stabilised SARS-CoV spike ectodomain trimer, residues 1-1160, two proline substitutions, T (SARS-CoV); experiment: ELISA, 47D11 titrated on coated spike ectodomain
[2] = biological target: prefusion stabilised SARS-CoV spike ectodomain trimer, residues 1-1160, two proline substitutions, T (SARS-CoV); experiment: ELISA: spike ectodomain coated on the plate, 47D11 titrated, OD450nm

Question: How did the EC50 (read off the curve) [1] turn out when “47D11 fully human IgG1 monoclonal antibody” was run?
Answer: Its EC50 (read off the curve) is 0.2 nM.

Question: And the EC50 (read off the curve) [2]?
Answer: The EC50 (read off the curve) was 0.2 nM.
